This is an account of results in patent US20060257938A1, “Method of screening for drugs that block ligand binding to a lipid binding protein” (priority 2005, published 2006).

What all share (type): binding
A short description of assay [1]: Probe fluorescence ratio response to stearic acid relative to ADIFAB2. Conditions: Table 5. The gist of the method:
(§1)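 Each fatty acid's response was expressed relative to ADIFAB2, the rI-FABP-L72A probe, as ΔR/ΔRreference. ΔR is the change in the background-corrected two-wavelength intensity ratio R=Fλ1/Fλ2 from its analyte-free baseline R0. Emission was read near about 420-480 nm for unbound and about 495-580 nm for FFA-bound probe.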

Assay [2] in a line: Probe fluorescence ratio response to arachidonic acid relative to ADIFAB2. Conditions: Table 5; Arachidonic acid. Put shortly: as §1
The nature of assay [3]: Probe fluorescence ratio response to linolenic acid relative to ADIFAB2. As to conditions: Table 5. Put shortly: as §1
The nature of assay [4]: Probe fluorescence ratio response to oleic acid relative to ADIFAB2. Conditions: Table 5. Put shortly:
as §1

The nature of assay [5]: Probe fluorescence ratio response to linoleic acid relative to ADIFAB2. Conditions: Table 5. Put shortly:
as §1

A short description of assay [6]: Probe fluorescence ratio response to palmitoleic acid relative to ADIFAB2. As to conditions: Table 5. Put shortly: as §1
Assay [7] can be described thus: Probe fluorescence ratio response to palmitic acid relative to ADIFAB2. As to conditions: Table 5. The gist of the method:
as §1

B1: L2P22H10: FABP probe, substitutions M18I F55G A73M vs SEQ ID NO: 2 (protein, listed as Rattus norvegicus)
chain: AFDGTWKVDRNENYEKFIEKMGINVVKRKLGAHDNLKLTITQEGNKFTVKESSNGRNIDVVFELGVDFAYSLMDGTELTGTWTMEGNKLVGKFKRVDNGKELIAVREISGNELIQTYTYEGVEAKRIFKKE
modifications: PEPTIDE (1)...(131) wild-type rat intestinal fatty acid binding protein
Turning to B1, in assay [1], the “ΔR/DRAΔ2 SA” value is recorded as 0.4. The “ΔR/DRAΔ2 AA” value in assay [2] is given as 0.9. Besides, in assay [3], the “ΔR/DRAΔ2 LNA” value is given as 1.3. In assay [4], the “ΔR/DRAΔ2 OA” value is given as 0.6. The “ΔR/DRAΔ2 LA” value in assay [5] is given as 1.1. Also, the “ΔR/DRAΔ2 POA” value in assay [6] is given as 1.2. Besides, in assay [7], the “ΔR/DRAΔ2 PA” value worked out at 1.1.

B2: L2P12C5: FABP probe, substitutions M18I G31I F55M A73I vs SEQ ID NO: 2 (protein, listed as Rattus norvegicus)
chain: AFDGTWKVDRNENYEKFIEKMGINVVKRKLIAHDNLKLTITQEGNKFTVKESSNMRNIDVVFELGVDFAYSLIDGTELTGTWTMEGNKLVGKFKRVDNGKELIAVREISGNELIQTYTYEGVEAKRIFKKE
modifications: PEPTIDE (1)...(131) wild-type rat intestinal fatty acid binding protein
For the molecule B2, the “ΔR/DRAΔ2 SA” value in assay [1] is recorded as 0.4. Moreover, the “ΔR/DRAΔ2 AA” value in assay [2] was determined as 1.3. Also, the “ΔR/DRAΔ2 LNA” value in assay [3] came out at 1.7. In addition, the “ΔR/DRAΔ2 OA” value in assay [4] came to 0.8. The “ΔR/DRAΔ2 LA” value in assay [5] amounted to 1.5. For the same molecule, in assay [6], the “ΔR/DRAΔ2 POA” value is on record as 1.9. In addition, the “ΔR/DRAΔ2 PA” value in assay [7] was 1.5.

B3: L2P22E6: FABP probe, substitutions M18V G31A F55I A73W vs SEQ ID NO: 2 (protein, listed as Rattus norvegicus)
chain: AFDGTWKVDRNENYEKFVEKMGINVVKRKLAAHDNLKLTITQEGNKFTVKESSNIRNIDVVFELGVDFAYSLWDGTELTGTWTMEGNKLVGKFKRVDNGKELIAVREISGNELIQTYTYEGVEAKRIFKKE
modifications: PEPTIDE (1)...(131) wild-type rat intestinal fatty acid binding protein
With B3, the “ΔR/DRAΔ2 SA” value in assay [1] is listed as 0.4. For the same molecule, the “ΔR/DRAΔ2 AA” value in assay [2] came to 1.0. Further, in assay [3], the “ΔR/DRAΔ2 LNA” value is 1.6. Moreover, the “ΔR/DRAΔ2 OA” value in assay [4] is listed as 0.8. The “ΔR/DRAΔ2 LA” value in assay [5] worked out at 1.3. Moreover, the “ΔR/DRAΔ2 POA” value in assay [6] was 1.6. In addition, the “ΔR/DRAΔ2 PA” value in assay [7] was 1.3.

B4: L2P21G3: FABP probe, substitutions M18I G31M F55M vs SEQ ID NO: 2 (protein, listed as Rattus norvegicus)
chain: AFDGTWKVDRNENYEKFIEKMGINVVKRKLMAHDNLKLTITQEGNKFTVKESSNMRNIDVVFELGVDFAYSLADGTELTGTWTMEGNKLVGKFKRVDNGKELIAVREISGNELIQTYTYEGVEAKRIFKKE
modifications: PEPTIDE (1)...(131) wild-type rat intestinal fatty acid binding protein
Take B4: the “ΔR/DRAΔ2 SA” value in assay [1] stood at 0.3. Besides, in assay [2], the “ΔR/DRAΔ2 AA” value was found to be 1.0. The “ΔR/DRAΔ2 LNA” value in assay [3] was found to be 1.4. For the same molecule, in assay [4], the “ΔR/DRAΔ2 OA” value is 0.6. The “ΔR/DRAΔ2 LA” value in assay [5] stood at 1.1. In addition, the “ΔR/DRAΔ2 POA” value in assay [6] is given as 1.4. The “ΔR/DRAΔ2 PA” value in assay [7] is 1.1.

B5: L2P18H12: FABP probe, substitutions M18I G31V A73G vs SEQ ID NO: 2 (protein, listed as Rattus norvegicus)
chain: AFDGTWKVDRNENYEKFIEKMGINVVKRKLVAHDNLKLTITQEGNKFTVKESSNFRNIDVVFELGVDFAYSLGDGTELTGTWTMEGNKLVGKFKRVDNGKELIAVREISGNELIQTYTYEGVEAKRIFKKE
modifications: PEPTIDE (1)...(131) wild-type rat intestinal fatty acid binding protein
On to B5, for which the “ΔR/DRAΔ2 SA” value in assay [1] is listed as 0.5. In addition, the “ΔR/DRAΔ2 AA” value in assay [2] is 1.3. In assay [3], the “ΔR/DRAΔ2 LNA” value is recorded as 1.9. Besides, the “ΔR/DRAΔ2 OA” value in assay [4] is reported as 1.0. Moreover, the “ΔR/DRAΔ2 LA” value in assay [5] is 1.7. Also, the “ΔR/DRAΔ2 POA” value in assay [6] is 2.1. Also, in assay [7], the “ΔR/DRAΔ2 PA” value amounted to 1.6.

B6: L2P8A5: FABP probe, substitutions M18V G31A F55W A73W vs SEQ ID NO: 2 (protein, listed as Rattus norvegicus)
chain: AFDGTWKVDRNENYEKFVEKMGINVVKRKLAAHDNLKLTITQEGNKFTVKESSNWRNIDVVFELGVDFAYSLWDGTELTGTWTMEGNKLVGKFKRVDNGKELIAVREISGNELIQTYTYEGVEAKRIFKKE
modifications: PEPTIDE (1)...(131) wild-type rat intestinal fatty acid binding protein
In the case of B6, the “ΔR/DRAΔ2 SA” value in assay [1] was determined as 0.4. Also, in assay [2], the “ΔR/DRAΔ2 AA” value was determined as 1.1. The “ΔR/DRAΔ2 LNA” value in assay [3] is 1.9. The “ΔR/DRAΔ2 OA” value in assay [4] came out at 0.9. Besides, the “ΔR/DRAΔ2 LA” value in assay [5] is 1.6. The “ΔR/DRAΔ2 POA” value in assay [6] was 2.0. In assay [7], the “ΔR/DRAΔ2 PA” value is 1.5.

B7: L2P23G7: FABP probe, substitutions M18V G31F F55L vs SEQ ID NO: 2 (protein, listed as Rattus norvegicus)
chain: AFDGTWKVDRNENYEKFVEKMGINVVKRKLFAHDNLKLTITQEGNKFTVKESSNLRNIDVVFELGVDFAYSLADGTELTGTWTMEGNKLVGKFKRVDNGKELIAVREISGNELIQTYTYEGVEAKRIFKKE
modifications: PEPTIDE (1)...(131) wild-type rat intestinal fatty acid binding protein
As to B7, the “ΔR/DRAΔ2 SA” value in assay [1] amounted to 0.4. In addition, in assay [2], the “ΔR/DRAΔ2 AA” value is 0.9. Further, the “ΔR/DRAΔ2 LNA” value in assay [3] was 1.2. Also, the “ΔR/DRAΔ2 OA” value in assay [4] was determined as 0.6. For the same molecule, the “ΔR/DRAΔ2 LA” value in assay [5] is 1.0. For the same molecule, the “ΔR/DRAΔ2 POA” value in assay [6] is 1.4. In assay [7], the “ΔR/DRAΔ2 PA” value was found to be 1.0.

B8: L2P21C1: FABP probe, substitutions M18I G31Y A73V vs SEQ ID NO: 2 (protein, listed as Rattus norvegicus)
chain: AFDGTWKVDRNENYEKFIEKMGINVVKRKLYAHDNLKLTITQEGNKFTVKESSNFRNIDVVFELGVDFAYSLVDGTELTGTWTMEGNKLVGKFKRVDNGKELIAVREISGNELIQTYTYEGVEAKRIFKKE
modifications: PEPTIDE (1)...(131) wild-type rat intestinal fatty acid binding protein
Regarding B8, in assay [1], the “ΔR/DRAΔ2 SA” value amounted to 1.6. For the same molecule, the “ΔR/DRAΔ2 AA” value in assay [2] is listed as 2.8. Further, the “ΔR/DRAΔ2 LNA” value in assay [3] is recorded as 3.1. In assay [4], the “ΔR/DRAΔ2 OA” value was determined as 2.7. Moreover, in assay [5], the “ΔR/DRAΔ2 LA” value stood at 3.4. The “ΔR/DRAΔ2 POA” value in assay [6] is 2.9. The “ΔR/DRAΔ2 PA” value in assay [7] is 2.0.

B9: L2P23A4: FABP probe, substitutions M18V G31I F55L A73V vs SEQ ID NO: 2 (protein, listed as Rattus norvegicus)
chain: AFDGTWKVDRNENYEKFVEKMGINVVKRKLIAHDNLKLTITQEGNKFTVKESSNLRNIDVVFELGVDFAYSLVDGTELTGTWTMEGNKLVGKFKRVDNGKELIAVREISGNELIQTYTYEGVEAKRIFKKE
modifications: PEPTIDE (1)...(131) wild-type rat intestinal fatty acid binding protein
Regarding B9, the “ΔR/DRAΔ2 SA” value in assay [1] is recorded as 1.2. The “ΔR/DRAΔ2 AA” value in assay [2] is 2.8. The “ΔR/DRAΔ2 LNA” value in assay [3] is 2.6. For the same molecule, in assay [4], the “ΔR/DRAΔ2 OA” value worked out at 2.3. The “ΔR/DRAΔ2 LA” value in assay [5] was found to be 3.1. Also, in assay [6], the “ΔR/DRAΔ2 POA” value was determined as 2.8. Moreover, the “ΔR/DRAΔ2 PA” value in assay [7] was 1.9.

B10: L2P7F4: FABP probe, substitutions M18V G31V A73I vs SEQ ID NO: 2 (protein, listed as Rattus norvegicus)
chain: AFDGTWKVDRNENYEKFVEKMGINVVKRKLVAHDNLKLTITQEGNKFTVKESSNFRNIDVVFELGVDFAYSLIDGTELTGTWTMEGNKLVGKFKRVDNGKELIAVREISGNELIQTYTYEGVEAKRIFKKE
modifications: PEPTIDE (1)...(131) wild-type rat intestinal fatty acid binding protein
On to B10, for which, in assay [1], the “ΔR/DRAΔ2 SA” value amounted to 0.3. Moreover, in assay [2], the “ΔR/DRAΔ2 AA” value is 0.8. For the same molecule, the “ΔR/DRAΔ2 LNA” value in assay [3] was 1.5. Further, in assay [4], the “ΔR/DRAΔ2 OA” value is on record as 0.6. The “ΔR/DRAΔ2 LA” value in assay [5] came to 1.1. In addition, the “ΔR/DRAΔ2 POA” value in assay [6] amounted to 1.3. Besides, in assay [7], the “ΔR/DRAΔ2 PA” value came out at 1.3.

B11: L2P16A3: FABP probe, substitutions M18I G31L A73G vs SEQ ID NO: 2 (protein, listed as Rattus norvegicus)
chain: AFDGTWKVDRNENYEKFIEKMGINVVKRKLLAHDNLKLTITQEGNKFTVKESSNFRNIDVVFELGVDFAYSLGDGTELTGTWTMEGNKLVGKFKRVDNGKELIAVREISGNELIQTYTYEGVEAKRIFKKE
modifications: PEPTIDE (1)...(131) wild-type rat intestinal fatty acid binding protein
In the case of B11, the “ΔR/DRAΔ2 SA” value in assay [1] turned out to be 0.3. For the same molecule, the “ΔR/DRAΔ2 AA” value in assay [2] is on record as 1.0. Further, the “ΔR/DRAΔ2 LNA” value in assay [3] is listed as 1.5. Further, in assay [4], the “ΔR/DRAΔ2 OA” value is 0.6. In addition, in assay [5], the “ΔR/DRAΔ2 LA” value was determined as 1.1. Moreover, the “ΔR/DRAΔ2 POA” value in assay [6] came out at 1.4. Moreover, the “ΔR/DRAΔ2 PA” value in assay [7] is 1.1.

B12: L2P8B8: FABP probe, substitution A73F vs SEQ ID NO: 2 (protein, listed as Rattus norvegicus)
chain: AFDGTWKVDRNENYEKFMEKMGINVVKRKLGAHDNLKLTITQEGNKFTVKESSNFRNIDVVFELGVDFAYSLFDGTELTGTWTMEGNKLVGKFKRVDNGKELIAVREISGNELIQTYTYEGVEAKRIFKKE
modifications: PEPTIDE (1)...(131) wild-type rat intestinal fatty acid binding protein
Consider B12, for which, in assay [1], the “ΔR/DRAΔ2 SA” value worked out at 0.4. Also, in assay [2], the “ΔR/DRAΔ2 AA” value worked out at 1.1. Moreover, in assay [3], the “ΔR/DRAΔ2 LNA” value is listed as 1.8. Besides, the “ΔR/DRAΔ2 OA” value in assay [4] came to 0.6. In addition, the “ΔR/DRAΔ2 LA” value in assay [5] amounted to 1.2. For the same molecule, in assay [6], the “ΔR/DRAΔ2 POA” value was determined as 2.4. Besides, in assay [7], the “ΔR/DRAΔ2 PA” value worked out at 1.1.
